What was measured:
[1] = molecular target: T1, Recombinant His‐tagged GRB2 protein (human, UniProt P62993 1-217); assay: BLI
[2] = molecular target: T1, Recombinant His‐tagged GRB2 protein; assay: BLI; GRB2 preincubated with Rg3

T1 sequence (P62993 whole entry): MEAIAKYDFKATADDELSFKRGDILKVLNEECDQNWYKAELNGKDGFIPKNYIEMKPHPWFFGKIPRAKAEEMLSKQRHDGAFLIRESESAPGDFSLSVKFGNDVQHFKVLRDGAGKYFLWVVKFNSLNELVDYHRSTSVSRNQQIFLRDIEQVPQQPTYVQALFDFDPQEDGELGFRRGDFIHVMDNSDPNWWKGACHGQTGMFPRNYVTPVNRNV

B1: Recombinant His‐tagged TRKA protein (receptor)
chain: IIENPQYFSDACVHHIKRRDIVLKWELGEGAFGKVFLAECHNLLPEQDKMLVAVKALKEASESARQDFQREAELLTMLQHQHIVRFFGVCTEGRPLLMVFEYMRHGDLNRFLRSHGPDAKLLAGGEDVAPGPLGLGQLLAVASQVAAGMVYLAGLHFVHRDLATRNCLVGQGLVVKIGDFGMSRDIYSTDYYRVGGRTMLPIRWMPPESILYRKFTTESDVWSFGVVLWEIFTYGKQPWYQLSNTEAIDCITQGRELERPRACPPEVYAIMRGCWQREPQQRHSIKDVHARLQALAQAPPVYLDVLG
modifications: biotin (EZ‐Link NHS‐PEG12‐Biotin)
Kd [1]: 74.7 nM
Kd [2]: 14 nM
